The results in this text go back to patent publication US10501502B2, “Allophycocyanin alpha-subunit evolved labeling proteins (smURFPs)” (The Regents of the University of California, priority 2016, dated 2019).

Substitutions are numbered along the chain they refer to.

A short description of series [1]: FP purification and fluorescence characterization in vitro (spectra, extinction coefficient, quantum yield). In kind it is physicochemical. Here is the method: FP genes were expressed on a pBAD vector (Life Technologies) with a polyhistidine tag on the C terminus, cells were lysed with B-PER (Thermo Scientific), and purified using Ni-NTA (Qiagen) puri-fication. PCB (HO-1+PcyA) and BV (HO-1) incorporation in Escherichia coli was performed simultaneously during constitu-tively active FP expression. Extinction coefficient was determined by PCB or BV absorbance as described35,36 (Table 3, smURFP+BV and TDsmURFP+BV, and Table 2) or calculated for the apoproteins by determining the protein concentration by the BCA protein assay (Pierce), and a specific chromo-phore concentration was added (specified in the Purification of FP lacking chromophore and in vitro chromophore incorporation section) to get 1 and 2 chromophore species (Table 5, not including (Escherichia coli)). When FP chromophore (PCB or BV) was expressed in Escherichia coli, the PCB and BV Q band had absorbance that overlapped with detection of BCA or Bradford assay of 562 nm and 592 nm, respectively. We used the previously published protocols35,36, where there was no change of the BV absorbance at 390 nm when free in solution or attached to the FP. smURFP+BV denaturation with 1 M urea caused no change in the BV absorbance at 390 nm, but the Q band was reduced ˜20-fold. Therefore, the extinction coefficient of BV at 390 nm was used to calculate the concentration of holoprotein (FP+PCB or BV) concentration.
(§1) EX and EM spectra were obtained using SPEX Fluorolog fluorometer (Horiba). Absorbance spectra were obtained using UV-VIS Spectrophotometer Cary Eclipse (Varian) or UV-2700 (Shimadzu). Quantum yield was determined relative to Cy5. Incorporation rates of BV on 0.5 μM smURFP was performed by addition of smURFP to PBS alone or with 20% fetal bovine serum (FBS) and mixed by pipetting in a quartz cuvette. Chromophore was added last, mixed by pipetting, and fluorescence was recorded using SPEX Fluorolog fluorometer (Horiba). Photobleaching was characterized on bubbles of purified FP or Cy5 within mineral oil using light from a 150 W xenon arc lamp with 100% light through EX/EM=628(40)/680(30) nm for smURFP, TDsmURFP, and Cy5 or EX/EM=665 (45)/725 (50) nm for IFP 1.4 focused with a 40×, 1.2 numerical aperture C-Apochromat oil-immersion lens on a Zeiss Axiovert 200M inverted microscope. Photobleaching times were normalized to reflect an initial illumination intensity producing 1,000 photons per fluorescent molecule per second as previously described^37.
HO-1 was removed by digesting the pBAD vector (Life Technology) with MscI and PmeI (NEB). smURFP and TDsmURFP were expressed and purified as described above. No chromophore was present on smURFP and TDsmURFP (confirmed by UV, fluorescence imaging, and MS). For predominant fluorescent species+2 chromophores, a ten-fold excess of chromophore was added to smURFP and TDsmURFP. For predominant fluorescent species+1 chromophore, a quarter concentration of chromophore was added to smURFP and TDsmURFP. Chromophore was added in PBS+10% FBS at 37° C. overnight. smURFP+chromophore and TDsmURFP+chromophore were purified using NiNTA (Qiagen) to remove excess or noncovalently attached chromophore.

Series [2] in a line: In vitro photobleaching of bubbles of purified FP or Cy5 in mineral oil. In kind it is physicochemical. Here is the method:
as §1

Another series relates to Escherichia coli. The experiment in a line: Fluorescence of FPs expressed in Escherichia coli. Type of series: cell-based. The note with it: for fold brighter than R4-1: expressed in E. coli with HO-1. How it is done:
TeAPCα gene (codons optimized for Escherichia coli) was made by GenScript. Mutations were placed by random mutagenesis using GeneMorphII Random Mutagenesis Kit (Agilent Technologies). Screens for mutants that fluoresce with PCB or BV were performed by subcloning into a pBAD vector (Life Technologies) that expressed cyanobacteria Synechocystis HO-1 and Synechocystis PcyA genes for PCB production and Synechocystis HO-1 only for BV production, as previously described^34. Libraries were expressed in TOP 10 Electrocompetent Escherichia coli cells (Life Technologies) with addition of 0.2% arabinose to LB agar plates (FPs were constitutively expressed in Escherichia coli). Fluorescence was imaged on plates using a BioSpectrum AC Imaging System (UVP) with EX/EM=628(40)/690(50) nm for FPs+PCB, EX/EM=685(40)/710LP nm for rounds 4 and 5 FPs+BV, and EX/EM=650(13)/690(50) nm for Cy5-like FPs+BV (rounds 6-12). At round 6, 5-10 of the brightest colonies on each plate were combined in LB+0.2% arabinose, grown ˜18 h, mixture of plasmid DNA was purified, and TOP10 cells were transformed and plated on LB agar plates+0.2% arabinose. Fluorescence was screened on plates (as described above), 10-20 of the brightest colonies were screened in liquid culture fluorescence (FIG. 7a-e), plasmid DNA was purified, and DNA was sequenced. The plasmid DNA of 2-3 of the brightest FPs was chosen for mutagenesis for the subsequent round. When choosing DNA for subsequent mutagenesis rounds, genes with increased and/or novel silent DNA mutations were chosen over other DNA that had the same DNA and/or protein sequence of the previous round. Site-specific mutagenesis was performed using QuikChange Lightning Mutagenesis Kit (Agilent Technologies) to create smURFP (C4S mutation) and smURFP C52S.

A short description of series [3]: Native PAGE quaternary structure / stoichiometry. Type of series: physicochemical. Here is the method:
Native PAGE was run using NativePAGE Novex Bis-Tris Gel System (Life Technologies) on Native PAGE 4-16% Bis-Tris protein gels (Life Technologies). SDS-denaturing PAGE was run using NuPAGE MOPS SDS running buffer (Life Technologies) and NuPAGE Novex 4-12% Bis-Tris gels (Life Technologies). Precision Plus Protein Dual Color Standards (Bio-Rad) were used as an MW ladder. Zinc blot was performed after running the SDS-PAGE gel using the described method^44. Fluorescence was imaged using a BioSpectrum AC Imaging System (UVP) with EX/EM=535(45)/605(70) nm for tdTomato, EX/EM=650(13)/690(50) nm for smURFP and TDsmURFP, EX/EM=685(40)/710LP nm for IFP1.4 and BV+zinc.

On to Cy5 [reference compound], for which, in series [1] (Table 5), the Emission Maximum is 670 nm, the Excitation Maximum was determined as 649 nm, the Extinction Coefficient was 250,000 ^ m^−1cm^−1/chromophore and the Quantum Yield was found to be 25%. For the same molecule, the “molecular brightness relative to eGFP” value in series [1] (Table 5) came out at 186%. Moreover, the “in vitro photobleaching t50%” value in series [2] (excitation intensity yielding 1,000 photons per s) amounted to 22 s. Further, the “In vitro photostability t50%” value in series [2] (time to bleach 50% from an initial emission rate of 1,000 photons per s) was found to be 22 s.

B1: R3-2 + PCB: evolved APCα FP, SEQ ID NO: 4, with PCB (protein)
chain: MKTGEQRVKIATLLSENEKKIVDKASQDLWRRRPDFIAPGGIAFGQRERALCLRDYGWYLRLITFCLLAGDKDPIESIGLIGIREMYNSLGVPVPGMMESIRCLKEASLSLLDEEDAKETAPYFDYIIQAMS
modifications: phycocyanobilin chromophore; smRUFP Variant Polypeptide
Regarding B1, in series [1], the “extinction coefficient (EC)” value is recorded as 74,000 M^−1cm^−1 and the “quantum yield (QY)” value amounted to 13%. In series [1] (Table 4), the “Molecular Brightnes Relative to smURFP” value was found to be 30%. For the same molecule, in series [1] (evolved APCα FPs, Table 4), the “Emission Maximum” value was 648 nm, the “Excitation Maximum” value came out at 620 nm, the “Extinction Coefficient” value is listed as 74,000 M^−1 cm^−1 and the “Quantum Yield” value was 13%. Besides, the “fluorescence when expressed in E. coli (qualitative)” value with Escherichia coli is listed as “lacked fluorescence with BV”.

B2: R8-9: evolved APCα FP, SEQ ID NO: 10, with BV (protein)
chain: B1 chain with G4C, K9N, E18K, F36L, G45S, E48D, R61H, D73G, G96D, Q129K
modifications: biliverdin chromophore; smRUFP Variant Polypeptide
As for B2, in series [1], the “extinction coefficient (EC)” value was 175,000 M^−1cm^−1 and the “quantum yield (QY)” value came to 12%. Besides, the “Molecular Brightnes Relative to smURFP” value in series [1] (Table 4) is reported as 65%. Also, in series [1] (evolved APCα FPs, Table 4), the “Emission Maximum” value came out at 672 nm, the “Excitation Maximum” value was found to be 644 nm, the “Extinction Coefficient” value is 175,000 M^−1 cm^−1 and the “Quantum Yield” value amounted to 12%. Besides, the “fold brighter than R4-1” value with Escherichia coli was 5.7 fold.

B3: R7-7: evolved APCα FP, SEQ ID NO: 8, with BV (protein)
chain: B1 chain with G4C, E18K, R33H, F36L, G45S, R61H, D73G, Q129K, M131I
modifications: biliverdin chromophore; smRUFP Variant Polypeptide
Consider B3, for which, in series [1], the “extinction coefficient (EC)” value was 250,000 M^−1cm^−1 and the “quantum yield (QY)” value was 16%. The “Molecular Brightnes Relative to smURFP” value in series [1] (Table 4) came to 123%. Besides, in series [1] (evolved APCα FPs, Table 4), the “Emission Maximum” value is listed as 676 nm, the “Excitation Maximum” value was 648 nm, the “Extinction Coefficient” value is given as 250,000 M^−1 cm^−1 and the “Quantum Yield” value is reported as 16%. In addition, the “fold brighter than R4-1” value in the series with Escherichia coli stood at 1.3 fold.

B4: R4-1: evolved APCα FP, SEQ ID NO: 5, with BV (protein)
chain: B1 chain with G45S, G57R, R61H, Q129K
modifications: biliverdin chromophore; smRUFP Variant Polypeptide
As to B4, in series [1], the “extinction coefficient (EC)” value is given as 93,000 M^−1cm^−1 and the “quantum yield (QY)” value was 9.0%. Moreover, the “Molecular Brightnes Relative to smURFP” value in series [1] (Table 4) is on record as 26%. Also, in series [1] (evolved APCα FPs, Table 4), the “Emission Maximum” value is listed as 674 nm, the “Excitation Maximum” value is given as 647 nm, the “Extinction Coefficient” value is 93,000 M^−1 cm^−1 and the “Quantum Yield” value is reported as 9.0%. Further, the “quaternary structure on native gel” value in series [3] was “tetramer”.

B5: R8-8: evolved APCα FP, SEQ ID NO: 9, with BV (protein)
chain: MKTCEQRVKIATLLSENKKKIVDKASQDLWRRHPDLIAPGGIAFSQRDRALCLRDYGWYLHLITFCLLAGDKGPIESIGLIGIREMYNSLGVPVPAMMESIRCLKEASLSLLDEEDANETAPYFDYIIKAMS
modifications: biliverdin chromophore; smRUFP Variant Polypeptide
For B5, in series [1], the “extinction coefficient (EC)” value is reported as 260,000 M^−1cm^−1 and the “quantum yield (QY)” value was 13%. Besides, the “Molecular Brightnes Relative to smURFP” value in series [1] (Table 4) is given as 104%. Moreover, in series [1] (evolved APCα FPs, Table 4), the “Emission Maximum” value turned out to be 672 nm, the “Excitation Maximum” value turned out to be 648 nm, the “Extinction Coefficient” value is recorded as 260,000 M^−1 cm^−1 and the “Quantum Yield” value stood at 13%. In the series with Escherichia coli, the “fold brighter than R4-1” value was determined as 5.8 fold.

B6: R10-10: evolved APCα FP, SEQ ID NO: 11, with BV (protein)
chain: B5 chain with K9N, S15T
modifications: biliverdin chromophore; smRUFP Variant Polypeptide
In the case of B6, in series [1], the “extinction coefficient (EC)” value was 200,000 M^−1cm^−1 and the “quantum yield (QY)” value is on record as 15%. In addition, the “Molecular Brightnes Relative to smURFP” value in series [1] (Table 4) amounted to 93%. Moreover, in series [1] (evolved APCα FPs, Table 4), the “Emission Maximum” value turned out to be 672 nm, the “Excitation Maximum” value came to 646 nm, the “Extinction Coefficient” value is listed as 200,000 M^−1 cm^−1 and the “Quantum Yield” value is recorded as 15%. The “fold brighter than R4-1” value with Escherichia coli amounted to 8.3 fold. Also, the “quaternary structure on native gel” value in series [3] is “homodimer”.

B7: R11-2: evolved APCα FP, SEQ ID NO: 12, with BV (protein)
chain: B5 chain with K9N, S15T, G82S, D113E
modifications: biliverdin chromophore; smRUFP Variant Polypeptide
As for B7, the “Molecular Brightnes Relative to smURFP” value in series [1] (Table 4) stood at 70%. Besides, in series [1] (evolved APCα FPs, Table 4), the “Emission Maximum” value stood at 672 nm, the “Excitation Maximum” value is given as 642 nm, the “Extinction Coefficient” value is recorded as 190,000 M^−1 cm^−1 and the “Quantum Yield” value is recorded as 12%. Also, the “fluorescence when expressed in E. coli (qualitative)” value with Escherichia coli is given as “slightly more fluorescent than R10-10”.
